From publication PMC7363131, “Interaction of the Streptomyces Wbl protein WhiD with the principal sigma factor σ^HrdB depends on the WhiD [4Fe-4S] cluster” (The Journal of Biological Chemistry, 2020) come the findings set out here.

The experiment deals with T1, S. venezuelae WhiD (SvWhiD), N-terminally His6-tagged, full length (S. venezuelae, [4Fe-4S] cluster bound as isolated (cluster loading ~90%); cluster-free (apo) form after exposure to O2; N-terminal methionine cleaved).
T1 construct: WhiD of Streptomyces venezuelae, Wbl family [4Fe-4S] protein; codon-optimized gene in pET28a (NdeI/HindIII); His-tagged protein 15,923 Da by LC-MS (predicted 15,924 Da without the N-terminal methionine); The holo ([4Fe-4S]) and apo (cluster-free) forms have the same polypeptide and are kept as one molecule; The assay and the 'only:' limit tell which form was tested; The preparation holds ~10% …
The experiment in a line: native MS; nondenaturing ESI-MS titration; SvWhiD 3 μM with σ^HrdB4 0.75-21 μM, I151A FNR (3 μM) as internal standard, 250 mM ammonium acetate, pH 7.2; fractional saturation against free σ^HrdB4 fitted with a simple binding isotherm. The settings on record: both partners purified.

B1: Domain 4 of the S. venezuelae principal sigma factor σ^HrdB (σ^HrdB4), N-terminally His6-tagged (domain or fragment)
chain: PADAVSFTLLQEQLHSVLDTLSEREAGVVSMRFGLTDGQPKTLDEIGKVYGVTRERIRQIESKTMSKLRHPSRSQVLRDYLD
As a reminder, the Kd is a measure of binding affinity in units of concentration. A high value points to lower affinity. Regarding B1, the Kd amounted to 740 nM.
